Measurements from US20070059756A1, “Immunointeractive molecules and their uses in treating subjects suffering from Hev b 5 allergies” (priority 1999, published 2007).

What was measured:
[1] = test system: latex specific T cell lines; assay: Oligoclonal T cell proliferation assay (3H-thymidine incorporation); assay type: cell-based, human; settings: for Oligoclonal proliferative response: antigen 10 μg/ml, 4 day cultures
Protocol: (§1) Latex specific T cell lines were isolated using our well established methods for the generation of allergen specific oligoclonal T cell populations (O'Hehir et al., 1987). An initial primary culture was performed for each patient to determine the optimal concentration of LAL for stimulation. For this, peripheral blood mononuclear cells (PBMC) separated from heparinised venous blood by density centrifugation (2×10^5/well) were stimulated with LAL over a concentration range 0.03 to 100 μg/ml, with control cultures of PBMC alone or stimulated with tetanus toxoid. All cultures were maintained in complete medium (RPMI-1640, Gibco Life Technologies supplemented with 2 mmol/L L-glutamine, 100 IU/ml penicillin-streptomycin and 5% screened, heat inactivated human AB serum [Sigma]). […] Therefore, to generate T cell lines, PBMC (2.5×10^6/well) were stimulated for 1 week with LAL at a concentration of 20 μg/ml in 24-well tissue culture plates (Costar, USA). After 7 days, lymphoblasts (1×10^6/well) were restimulated for one week with LAL at a concentration of 20 μg/ml in the presence of an equal number of irradiated (3000 rad) autologous PBMC as antigen presenting cells (APC). On days 2 and 4, cultures were supplemented with Lymphocult-T (5% v/v; Biotest Folex, Germany) and fresh medium. At the end of the second week, lymphoblasts were restimulated for one week with rhev b 5/MBP at a concentration of 20 μg/ml as described above. Oligoclonal T cells were recovered, washed and tested in proliferation and cytokine assays (as described below) either fresh or after cryopreservation in liquid nitrogen. We have previously shown that CD4^+ T cells are preferentially expanded in these cultures.
Oligoclonal T cell blasts (5×10^4) were incubated in 96-well round bottom plates (Linbro, ICN Biomedicals, USA) in triplicate with equal numbers of irradiated APC in the presence of LAL at concentrations ranging from 0.03-100 μg/ml, rHev b 5/MBP (10 and 20 μg/ml), MBP (10 and 20 μg/ml), overlapping peptides of the Hev b 5 sequence (10 and 30 μg/ml), Lymphocult-T (10 IU/ml) or PHA (3 μg/ml). Cultures of T cells and APC in the absence of antigen, T cells alone and APC alone in the absence of antigen were included as controls. After 72 hours cultures were pulsed with 1 μCi of ^3H-thymidine (^3HTdR; Du Pont, NEN) and harvested 12-16 hours later. Proliferation as correlated with ^3HTdR incorporation was measured by liquid scintillation spectroscopy. Results are expressed as mean counts per minute (cpm) for triplicate cultures with standard deviation (SD; ±20% for all experiments).

[2] = test system: PBMC; assay: Primary culture PBMC proliferation (polyclonal response); assay type: cell-based, human; settings: primary cultures of PBMC
Protocol: as §1, with “At the end of the second week, lymphoblasts were restimulated for one week with rhev b 5/MBP at a concentration of 20 μg/ml as described above. Oligoclonal T cells were recovered, washed and tested in proliferation and cytokine assays (as described below) either fresh or after cryopreservation in liquid nitrogen. We have previously shown that CD4^+ T cells are preferentially expanded in these cultures.” left out

[3] = test system: house dust mite specific three-week T cell line; assay type: cell-based
Protocol: Mitogenicity of latex antigens was excluded by testing the ability of LAL, rHev b 5/mBP and Hev b 5 peptides to stimulate a house dust mite specific three-week T cell line. No reactivity to latex allergens was observed (data not shown). Toxicity was assessed by coculturing the same antigens with house dust mite specific T cells in the presence of Lymphocult-T at 10 IU/ml.

[4] = test system: serum IgE; assay: Dot immunoblot of patient serum IgE reactivity; assay type: binding, human; settings: sera of latex allergic patients 1-6
Protocol: Patient serum IgE reactivity to latex allergens was analysed by dot immunoblots. LAL (25 μg), rHev b 5/MBP (7 μg) and MBP (4.5 μg) were applied side by side on a nitrocellulose membrane (Schleichner and Schuell, Germany) in a 5 μl volume and allowed to soak in. The amount of MBP was estimated to be equivalent to that in the rHev b 5/MBP aliquot. The membrane was then blocked, incubated in patient sera and IgE binding detected according to our established protocols (Suphioglu et al., 1993). Briefly, the blots were blocked in 10% w/v skim milk powder in PBS and washed once in PBS containing 0.2% v/v Tween 20 and twice in PBS alone. Blots were then incubated in patients' sera (diluted 1:4 in PBS/0.5% BSA) overnight at room temperature with shaking before washing as described above. Finally, IgE antibody binding was detected by incubation in rabbit anti-human IgE (Dako, Denmark) followed by horse radish peroxidase-labelled anti-rabbit antibodies (Promega, USA), washing in between, and developing in the substrate 4-chloro-1-napthol (Sigma) after the final wash.

[5] = Immune response of mice immunised with rHev b 5/MBP (serum ELISA); assay type: in vivo, BALB/c mice; settings: 20 μg/injection IP; serum ELISA against rHev b 5/MBP, MBP and NAL
Protocol: Monoclonal antibody production was carried out based on the method of Köhler and Milstein (Köhler et al., 1975) according to established protocols (Goding, 1996). Six to 8 week old female BALB/c mice were immunised intraperitoneally (IP) with 20 μg/injection of rHev b 5/MBP diluted in 200 μl of phosphate buffered saline (PBS). The first injection was given with an equal volume (200 μl) of Complete Freund's Adjuvant (Sigma, USA), and the second with 200 μl of Incomplete Freund's Adjuvant (Sigma, USA). The subsequent 4 immunisations were given in phosphate buffered saline (PBS) alone. The initial 2 immunisations were given at a 2 weekly interval; the remainder were given at monthly intervals, with 100 μl of whole blood being taken before the first immunisation and at 5 days following each immunisation (except for the first) to monitor the immune response. The blood was then centrifuged, the serum removed, and aliquotted at −20° C. for later analysis using enzyme linked immunosorbent assay (ELISA) as below. The final booster immunisation of 20 μg of rHev b 5/MBP in 200 μl PBS was given IP 3 days before the mouse was humanly killed and the spleen aseptically removed, macerated and then fused with 10^7 murine myeloma cells (X-63.Ag8 cell line, generous gift of Professor Jim Goding). […] Colour development was then observed and the plate read at […]. […]

B1: rHev b 5/MBP: recombinant Hev b 5 as maltose binding protein (MBP) fusion protein (protein)
chain: ASVEVESAATALPKNETPEVTKAEETKTEEPAAPPASEQETADATPEKEEPTAAPAEPEAPAPETEKAEEVEKIEKTEEPAPEADQTTPEEKPAEPEPVAEEEPKHETKETETEAPAAPAEGEKPAEEEKPITEAAETATTEVPVEKTEE
modifications: left off: large carriers; small tags and cut ends
Oligoclonal proliferative response ([1]; P1 T cell line): 9.0 counts per minute × 10^−3 | Oligoclonal proliferative response ([1]; P2 T cell line): 5.7 counts per minute × 10^−3 | oligoclonal proliferative response (in words) ([1]; three-week latex specific T cell lines): significantly higher than those of MBP alone | polyclonal PBMC response (in words) [2]: considerably less than those to LAL | mitogenicity: stimulation of house dust mite specific T cell line [3]: No reactivity | serum IgE reactivity [4]: patients 1, 2, 3, 4 and 5 showed IgE reactivity | immune response of immunised mice [5]: strong polyclonal immune response
